According to the nanobody polyreactivity screen of Harvey et al. (2022):

Assay: yeast display, Sf9 membrane polyspecificity reagent, FACS + sequencing; frameworks hold sequencing errors
Summary of the method: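 After 36–48 hours of galactose induction, yeast (Saccharomyces cerevisiae BJ5465) displaying a synthetic nanobody library were stained at 4 °C for 1 hour with 10% biotinylated, detergent-solubilized Sf9 membrane reagent. Streptavidin microbeads enriched the stained cells before FACS sorting into low and high (top ~1%) gates on anti-HA and streptavidin fluorescence. Each clone's polyreactivity label reflects its gate of origin.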

| Sequence | polyreactivity (PSR sort gate) |
| --- | --- |
| QVQLVESGGGLFQAGGSLRLSCAASGSTFGFYAIGWYRQAPGKERELVARITYSGGSTYYADSVKGRFTISRDNAKITVYLQLNSLIPEDNAVSYCAARSWTHYFRYDYWGQGTQVTVSS | high polyreactivity |
| QVQLVESGGGLVQAGGSLRLSCAASASILVRYAMVCYRQAPGKKREMVSAITATSGGTYYADSVKGRFTFSLDNAKNTVYLQMYSLKPEDTAVYYCNADGGSGAYLDLTITDYDYWGQGTQVTVSS | low polyreactivity |
| QVQLVESGGGLVQAGGSLRLSCAASGLIFDIYAMGWYRQAPGKERELVATISKRGGTTSYADSVKGRFTISRDNAKNTVYLQMNSLKPEDTAVYYCAATTLIAYDYWGQGTQVTVSS | high polyreactivity |
| QVQLVESGGGLVQAGGSLRLSCAASGSTFRYYAMGWYRQAPGEEREFVASISSTGTSRYYADSVKGRFTISRDNAKNTVYLQMNSLKPEDTAVYYCAARYISYYGYNHWGQGTQVTVSS | high polyreactivity |
| QVQLVESGGGLVQAGGSLRLSCAASGITFQSNDMGWYRQAPGKERELVAAISWSDDTTYYADSVKGRFTISRDNAKNTVYLQMNSLKPEDTAVYYCAAVYDSKSYYYWGQGTQVTVSS | high polyreactivity |
| QVQLVESGGGLVQAGGSLRLSCAASGSIIVRYAMGWYRQAPGKERELVAAISWSGGRTYYADSVKGRFTISRDNAKNTVYLQMNSLKPEDTAVYYCAADSSVRYRDTEDYWGQGTQVTVSS | low polyreactivity |
| QVQLVETGGGLVHAGGSLRLSCAASGSIFQGHAMGWYRQAPGKERELVAAISRNGGRTYYADSVKGRFTISRDNAKNTVYLQMNSLKPEDTAVYYCAAYHNVEYDYWGQGTQVTVSS | high polyreactivity |
| QVQLVESGGGLVQAGGSLRLSCAASGRTFVTNAMGWYRQAPGKERELVAAISSSGGSTYYADSVKGRFTISRDNAKNTVYLQMNSLKPEDTAVYYCAVGGQTKGQYDYWGQVTQVTVSS | low polyreactivity |
| QVQLVESVGGLVQAGGSLRLSCAASGSIFTYNAMGWYRQAPGKERELVAAITTSGDSTYYADSVKGRFTISRDNAKNTVYLQMNSLKPEDTAVYYCNADWSWYNYYDFDYWGQGTQVTVSS | low polyreactivity |
| QVQLVESGGGLVQAGGSLRLSCAASGSTFYLNAMGWYRQAPGKERELVASITWSGGRTYYADSVKGRFTISRDNAKNTVYLQMNSLKPEDTAVYYCAADPVWGRYIKYDYWGQGTQVTVSS | high polyreactivity |
| QVQLVESGGGLVQAGGSLRLSCAASGRTSYYAMGWYRQAPGKERELVAAINSGDSTTYADSVKGRFTISRDNAKNNVYLQMNSLKPEDTAVYYCATALYDWYSLEFDYWGQGTQVTVSS | low polyreactivity |
| QVQLVESGGGLVQAGGSLRLSCAASGRTFWYYAMGWYRPAPGKERELVASISLSGSRTNYADSVKGRFTIARDNAKNTVYLQINRLKPEDTAVYYCAADNFRQFGEYDYLGQGTQVTVSS | low polyreactivity |
| QDQLVESCGGLVQAGGSLRLSCAASGGIINGYTMGWYRQAPGKETDLVAAITGSGGSTYYADSVKGRYTISRDNAKNTVYLQMNSLKPEETAVYYCARDYHARPNCPRSDDYDYWGQGTQVTVSS | low polyreactivity |
| QVQLVESGGGLVQAGGSLRLSCAASGSTFRYNAMGWYRQAPGKERELVAAITSTGDSTYYADSVKGRFTISRDNAKNTVYLQMNSLKPEDTAVYYCAARSYASPGWRYEYWGQGTQVTVSS | low polyreactivity |
| QVQLVESGGGLVQAGGSLRLSCAASGRTFYDYDMGWYRKAPGKERELVAAISGGDSTYYADSVKGRFTISRDNAKNTVFLQMNSLKPEDTAVYYCAVTPRGLPYGAYLLYYWGQGTQVTVSS | low polyreactivity |
| QVQLVESGGGLVQAGGSLRLSCAASGFIFTKYTKGWYRPAPGTERELVAAIRSDGVRTYYADSVKGRFTISRDNAKNTVYLQMNSLKPEDTAVYYCAAYKAVPHYYYWGQGTQVTVSS | high polyreactivity |
| QVQLVESGGGLVQAGGSLRLICAASGSIFLYYAMGWYRQAPGKEMELVAAITSTGSTYYADSVKGRFTISRDNAKNTVYLQMNSLKPEDTAVYYCAAELRRLFYAYGYWGQGTQVTVSS | low polyreactivity |
| QVQLVESGGGLVQAGGSLRLSCAASGRTMNSNAKGSYRQAPGKEREFVAAITSGGSTNYADSVKGRFSLSRDNAKNTVYLQMTSLKPEDTAVYYCAVRGYWTIRCRRYYYWGHGTQVTVSS | high polyreactivity |
| QDQLVESGGGLVQAGGSLRLSCAASGTFGGYAMGCYRQAPRKERELVARIRRNGGSTYYADSVKGRFTISRDNAKNTVYLQMNCLKPEDTAVYYCATYRYVYGTASYGYWGQGTQVTVSS | high polyreactivity |
| QVQLVESGGGLVQAGGSLRLSCAASGRIFLYYTMGWYRQAPGKERELVADITWRGGSTYYADSVKGRFTISRDNAKNTVYLQMNSLKPVDTAVYYCNAVSVSSNRSDYWGQGTQVTVSS | low polyreactivity |
| QVQLEESGGGLVQAGGSHRLSCAASGSTIYAYTMGWYRQAPGKERELVARISGRGGSTYYADSVKGRFTISRDNAKNTVYLQMNSLKQEDTAVYYCAARRKFDYWGQGTQVTVSS | high polyreactivity |
